Measurements as given in a protein production outcome set (Wang et al. 2014).

Assay: label from the status in PepcDB records

Sequence | protein production
MLSYPGELQGCRVILYLVGHHLYLIPTTISMCGCPEEGAYMRRLWGYISIITATIFFGISATLDKIMLSSMHPVTIGAYTYIIAGIFLFFIRETPLREHVLNAINRKGESEARIKRNDYLILLLTALLSTVIAPLLFLTGLGDTTAVNASLILNVEVLFIILLGYLIFRETLQLKDFLGIVLIILGAVYLLTEGDFSTILRNVAVTGNFLVMAAAFFWSLDTVLSKFLSRKRDLIFISGVKSSVGGFVLLIIMLILGINTELPLEMLPYALGVSVFSIGCSFILIYIAIREIGASMVGALFPLSSLFGAIFAFIILREPFSIMQGISGIVMLTGVFILYWNGK | failed
MLTDALLAFLHFTAIFVLVTLMAAEAVVLRPDMPPSAVRRLSQYDFFYFLSAMVVLATGLLRLFYGAKGVDFYLHNPWFHAKITVFVLIALATLPPTFAFARWRKQSLKLPEFVPTPAEIKKVRRWVMIEAHAFILLPLCAVMMARGIGIH | failed
MLTDSGGGGTSFEEDLDSVAPRSAPAGASEPPPPGGVGLGIRTVRLFGEAGPASGVGSSGGGGSGSGTGGGDAALDFKLAAAVLRTGGGGGASGSDEDEVSEVESFILDQEDLDNPVLKTTSEIFLSSTAEGADLRTVDPETQARLEALLEAAAFADPEVLRRLTSSVSCALDEAAAALTRMKAENSHNAGQVDTRSLAEACSDGDVNAVRKLLDEGRSVNEHTEEGESLLCLACSAGYYELAQVLLAMHANVEDRGNKGDITPLMAASSGGYLDIVKLLLLHDADVNSQSATGNTALTYACAGGFVDIVKVLLNEGANIEDHNENGHTPLMEAASAGHVEVARVLLDHGAGINTHSNEFKESALTLACYKGHLDMVRFLLEAGADQEHKTDEMHTALMEACMDGHVEVARLLLDSGAQVNMPADSFESPLTLAACGGHVELAALLIERGANLEEVNDEGYTPLMEAAREGHEEMVALLLAQGANINAQTEETQETALTLACCGGFSEVADFLIKAGADIELGCSTPLMEASQEGHLELVKYLLASGANVHATTATGDTALTYACENGHTDVADVLLQAGADLDKQEDMKTILEGIDPAKHQVRVAFDACKLLRKE | failed
MLTHYAALRASDRETFLIIELGGLGGRMGLVFVVMIVVLLYAPVHVPTYVGTLLGLLFVSIAFEIWMIVRRMRQDGLMARD | failed
MLTKVIEQAKIDHFTKWFERADKIVIVSHVSPDGDAIGSSLGLYHFLDSQEKTVNVIVPNAFPDFLRWMPGSKDILLYDRYKDFADKLIAEADVICCLDFNALKRIDEMADAVAASPARKVMIDHHLYPEEFCKITMSYPKISSTSELIFRLICRMGYFSDISKEGAECIYTGMMTDTGGFTYNSNNREIYFIISELLSKGIDKDDIYRKVYNTYSESRLRLMGYVLSNMVVYSDYNAALISLTKEEQSKFDYIKGDSEGFVNIPLTIKNVCFSCFLREDTEKPMIKISLRSVGTFPCNQLAAEFFNGGGHLNASGGEFFGTIEEAKAVFEQALEKYKPLLTAKSLEHHHHHH | not failed
MLTLLNLLSAVTLLVWGTHIVRTGILRVFGSNLRRIISQNMDKRPLAFIAGILVTAMVQSSNATAMLVTSFVGQGLMAMTPALAIMLGADVGTALMARVLTFDLSWLSPLLIFLGVIFFLSRKQTRAGQLGRVGIGLGLIILALELIVQAAAPITQAQGVKVLFASLTGDIMLDALVGAMFAMISYSSLAAVLLTATLAGAELISLPVAIGLVVGANIGSGLLAFISTSMQNAAGRRVALGSLLYKLIGLVLIIPVLHPLVAWMDSLSFSPQELVIGFHLLYNTLRCLIMLPTVKPMGRLCNALLPEREIGNGQVRPRHLDASALETPSLALANAARETLRLGDIVDSLLEAMLGALRGTQTALPQQVRALGEDAEALYSAIKLYLAQMSREDLSEQDNRRWAEIIELSINLKLACDLIERMLRKVQQQKTSQRREFSQVGLEELTGLQEQLLANLRLGLSVFLSADPESARLLLREKRRFRAQERRLAHAHVSRLQRKVVQSIETSSLHLELIADMKRLNSLFCSSAYVVLGGSDTGGLMLDSVPDEARLP | failed
MLTLLSPCTLPVIPLLFASVRGRRGQLAIMLAGMALMFGAVSWLVTVASGWVVNLTLAGRGLALAFFALVGLSLLSQRVAQRLTSPLVALGNQLNDASSRQRGWIGSLLAGLAVGLLWAPCAGPVLGAILSLGFVHPGQATTGGLLLAYGSGGALMLFLLGWCGAALIARLRRGQAFGERLRRLAGGAMLASVALIASGGDRYLQSAGGLSQALEQRLAARLPQPEQKTSLQPIAAPQPSSAMPSLAGGSAWINSPALTPERLKGKVVLVDFWTRECINCQHTLPYVRDWANKYRAAGLVVIGVHTPEYPWERSLPLLRQAVKDWRITYPVVADNEYAIWNAFGNQYWPAHYIFDARGQLRYTAFGEGDYARQEQVIQQLLQESKA | failed
MLTSFKLHSLKPYTLKSSMILEIITYILCFFSMIIAFVDNTFSIKIYNITAIVCLLSLILRGRQENYNIKNLILPLSIFLIGLLDLIWYSAFKVDNSPFRATYHSYLNTAKIFIFGSFIVFLTLTSQLKSKKESVLYTLYSLSFLIAGYAMYINSIHENDRISFGVGTATGAAYSTMLIGIVSGVAILYTKKNHPFLFLLNSCAVLYVLALTQTRATLLLFPIICVAALIAYYNKSPKKFTSSIVLLIAILASIVIIFNKPIQNRYNEALNDLNSYTNANSVTSLGARLAMYEIGLNIFIKSPFSFRSAESRAESMNLLVAEHNRLRGALEFSNVHLHNEIIEAGSLKGLMGIFSTLFLYFSLFYIAYKKRALGLLILTLGIVGIGLSDVIIWARSIPIIIISAIVLLLVINNRNNTIN | failed
MLTTFLATVIGWYLVIVSLFLLFHNEHAKSAMAEIIAHRGSQLIMAIVTLITGLLLVVSHNIWVMGWPVVITLFAWLVLLGGLIRFLCPDTAVRIGQSFVDNPMRLKIAAVIFFIIGLFLLFNVYYVYLK | failed
MLTTLQNIMKLPNEIDEYLASRNFSENTRSNYHYDLVSLQAFFEDKSLTTENLELYKIQISNLSPAAQRRKISSANQYLLFLYQRQKVDQYFKIKQVVQKKSQTAQSYHPMIKEFPEFYGPLTCPGQFLALLILEFGLNFAEIQKLKWENFNWNFKYLTIEKAGIKRVLPIREKFAIRVKAINNADELFAKSRQFLYTELKKFTNYSSKEIREQYILHQVKAGKSIYELATLLGLTTITTLEKYYR | failed
MLTTNASSKIFSKASTAELVGHTRKVHCLSWNPKGGLLGSGGVDCVARIWDVEKLQQKAELEGHTSSIEQLKWDPTANVFFVSASLDHKVLFWDLRARNSEPVASVETQGENINLAWSQDGVYCAVGDKDDNLSFIDVRKFDFFERFQFAEEVNEFKWSPSGPFFFMTLGKEVLVFRWPTMEQQLRLQVHADRCYCLEFDRSGRYFALGGADSIISLWETEYMLCTWTVDRLEYPIRTISFSHDGQFIAAGSEDSVIDISDILNGRQTYALGVKGATNVVAWHPSRHLLAYATEEEYSRDGVAIHLYGTISKDNI | failed
MLTVTFTVSNTGDRAGAAVPQVYPGFPNTTIDRCVRELKAFRRVELEPGQRQTVTVALTRRDLSYWDILPHPLRSYAVGSILEHHHHHH | failed
MLVDSQYKECVKEIINWGLFLYSEESRRNLIHDSLVELRCHFTWELVIKDNYMPDLEAKILETEFLDTNYNMGMHNLMAYVRHLKGEQEEALQSLKEAEALIEGEQLGKRSLVTWGNCAWVHYHRGSLAEAQIYLDKVENVCREFASPFRYRMECAEIDCEEGWALLKCGGSNCTRAMACFAKALQEEPENPEYNAGYAITAFRMDFSNEISLEPLRKAVRLNPEDPHLKVLLALKLQDLGKQDEAEKHIEEALPKIPSRNNIFGYVAKFYRRKGCVEEALEFLERALKTKPSSVYLHFQIGLCHKSRVFQIKEATNMHPKGKDRERADQSIRSAIYYFEKTLDLKPTYERAYIDLAEMYAESKQFEEAEEAFQKVLSMLSNLEVHMQQEIHFRYGKFQQFHMKSENIAITHYLKGLKIEVTSIFRDKLLKALQKLAERRMQQNVHVLESLSLLGFVYRLKGDTRKAMSCYEKALRLTEELNPEF | failed
MLVFEIIIGLLLAGAALTALSRRIGTPYPALVALAGAALALVPGTPTLVLEPDLALTLFVAPVLLDAAYDASQRDLRASWRTVAGLAVGAVALTVVVVAVVARALVPGMPWAVAVALGAIVAPPDAAAATAVLGQLRPPHRLMVILEGESLFNDASALLVYRLAVGAALAGALSPVEVLPPLLASTAGSVALGYGLSRVIPPLIARIEDVPIAVVVQFCGTFAVWIVAERLHLSGILTVVVFAMASAQRAAGQMAARVRIPSYAVWGFAVFVLNVLAFILVGFQLKAILGRIDAPTLLRYAGVAGAVCLAAVVARIAWVSGTAAVSRLRCRPTEDGSKARPDTIGLSPRGAAVVGWCGMRGIVTLAAALALPTGARGAPPFPHRDLVVFTAFAVVLGTLVLQGMTLRPLMRALRLEGDRSVDREVRLARVETLRAGLSATDGAAGDPLSDVLRRRYELLLRGAEAELRGGAAPQAPPAGGDVDPRAGAAVARRAVEAERGRLLALRSDGTIGDAAFQRVEEELDLEELSLRRLARDGAREAS | failed
MLVLDVAARVWPFFLLVAAGVALSRLRLLDARMTQGLSAYVYWVGFPALLIHSLSRLGRPGPELWSGLAAYAAVGLAVMASLVVGGRALGWSRPERAGAAMAAGVGNSAFLAVPVTAAVLGAETARLVAGAIAADFVVLAAAGVGLLGWAAGRSVWRAMAQAFQNPVVIAALLGLLLALLNLALPQPLDRAVGLAAASGSPVGLVALGAALGLPQTEDEPGPRAGPVVLAALAKLLAFPLLVWLAIGLTPAPAEFRTGATLVAAAPTAVNVFIQTRAYGVWPRGAARIVALTTALAIVSLSLVAILLTARVS | failed
MLVLYRASIRFKLRKNKNSFDSSNYFYGGNNICIINTKWGKHSGIGGYAEIIDTLVGNFTNISSWAKIGIRDHIHTNFLICDFVYKDNDHIMPPGISSFEDYWVKIGNDVWVGTNVTILRGVEVGDGAVIAAGSVVTKSIPPYAIVGGNPAKFIKWRFPFEVREKLLEIKWWDWDDDLIKEKKDYLQNLVGFDMDKYKIEYRKRKEDLFYLEHHHHHH | not failed
MLVQKNEAFLWLHFYLISNFIVVIMQMFILVMYYLIIVDHSFVELNEQVNPLFSFLLFVFHSDLSFFPVLVQLIF | failed
MLVSLIYVFKQVLSANLDLFYILSLILLIKSLIKKEKYLIKLLYVIYIILFYTGIQIIFLNTSIDLIRYFVSSFKLILNFNLLFYIIKKIKFININKIIKNISYIFFIILVFALILRNNNILWRLNDYVNTFEEVRLRFFYYEPSELGFQVAIIIIIFVFKIYTKKIINKKDFCIIIFLSIILSLTSAYGAIISLMLALIPILFKSFKLNSYKKLLIAYSIILISIVIIYLNFYKISDSYIVQRGLSIISGEDGSVNYRFDIGLNIMINALKNTNLLGVGLSNANTDNFIIEYSNFGLVEVIANSFMYVITELGVLAVVFLVYLLIKCLISAKINNSILKLSLIIYIFSYQIAGGYFSNPTNWIIYGIILSNIKDEELFGRKD | failed
MLYIDKATILKFDLEMLKKHRRAIQFIAVLLFIVGLLCISFPFVSGDILSTVVGALLICSGIALIVGLFSNRSHNFWPVLSGFLVAVAYLLIGYFFIRAPELGIFAIAAFIAGLFCVAGVIRLMSWYRQRSMKGSWLQLVIGVLDIVIAWIFLGATPMVSVTLVSTLVGIELIFSAASLFSFASLFVKQQ | failed
MMAIQRVGIIGAGKVGIVLAGLALDAGYTVRISGSGSVKKIALTIKTLVPGAIASENADVVANSDIILLAIPLSRYKNIDADLLKGKLVIDAMNYWWETDGIREEVLDPSTTSSEQVQTYFKDAKIVKAFNHMGYHNLQEEARPKGDPKRKALFVTGNDPEAVATVAAFVDHMGFDTVVHNNLADGIMTEPGSPLFGASLRYAELKDIIDHFDQTEFGKEVAAQTHK | failed
MMANHLVKPDNRNCKRPRELESPVPDSPQLSSLGKSDSSFSEISGLFYKDEALEKDLNDVSKEINLMLSTYAKLLSERAAVDASYIDEIDELFKEANAIENFLIQKREFLRQRFTVIANTLHR | failed
